{"source": "patent US12473560", "about": "(FLAGSHIP PIONEERING INNOVATIONS VI, dated 2025)", "binders": {"B1": {"name": "AB-1 full-length IgG1 (antibody, V domains shown)", "VH": "EVQLEESGTVLARPGASVKMSCKASGYTFTTYWMHWIKQRPGQGLEWIGAIYPGNSDTQYNQKFKDKAKLTAVKSTSSAYMELSSLTNEDSAVYFCTREGIPQLLRTLDYWGQGTSVTVSS", "VL": "DILMTQSPSSLSASLGERVSLTCRASQEISGYLSWLQEKPDGTIKRLIYAASTLDSGVPKRFSGSRSGSDYSLTISSLESEDFADYYCLQYLSYPWTFGGGTKLEIK"}, "B2": {"name": "AB-2 full-length IgG1 (antibody, V domains shown)", "VH": "EVQLEESGTVLARPGASVKMSCKASGYTFTTYWMHWIKQRPGQGLEWIGAIYPGNGDTNYNQKFKDKAKLTAVKSTSSAYMELSSLTNEDSAVYFCTREGIPQLLRTLDYWGQGTSVTVSS", "VL": "DILMTQSPSSLSASLGERVSLTCRASQEISGYLSWLQEKPDGTIKRLIYAASTLDSGVPKRFSGSRSGSDYSLTISSLESEDFADYYCLQYLSYPWTFGGGTKLEIK"}, "B3": {"name": "AB-8 full-length IgG1 (antibody, V domains shown)", "VH": "EVQLEESGTVLARPGASVKMSCKASGYTFTTYWMHWIKQRPGQGLEWIGAIYPGNSDTIYNQKFKDKAKLTAVKSTSSAYMELSSLTNEDSAVYFCTREGIPQLLRTLDYWGQGTSVTVSS", "VL": "DILMTQSPSSLSASLGERVSLTCRASQEISGYLSWLQEKPDGTIKRLIYAASTLDSGVPKRFSGSRSGSDYSLTISSLESEDFADYYCLQYLSYPWTFGGGTKLEIK"}, "B4": {"name": "AB-7 full-length IgG1 (antibody, V domains shown)", "VH": "EVQLEESGTVLARPGASVKMSCKASGYTFTSYWMHWIKQRPGQGLEWIGAIYPGNSDTNYNQKFKDKAKLTAVKSTSSAYMELSSLTNEDSAVYFCTREGIPQLLRSLDYWGQGTSVTVSS", "VL": "DILMTQSPSSLSASLGERVSLTCRASQEISGYLSWLQEKPDGTIKRLIYAASTLDSGVPKRFSGSRSGSDYSLTISSLESEDFADYYCLQYLSYPWTFGGGTKLEIK"}, "B5": {"name": "AB-6 full-length IgG1 (antibody, V domains shown)", "VH": "EVQLEESGTVLARPGASVKMSCKASGYTFTSYWMHWIKQRPGQGLEWIGAIYPGNSDTNYNQKFKDKAKLTAVKSTSSAYMELSSLTNEDSAVYFCTREGIPQLTRTLDYWGQGTSVTVSS", "VL": "DILMTQSPSSLSASLGERVSLTCRASQEISGYLSWLQEKPDGTIKRLIYAASTLDSGVPKRFSGSRSGSDYSLTISSLESEDFADYYCLQYLSYPWTFGGGTKLEIK"}, "B6": {"name": "AB-3 full-length IgG1 (antibody, V domains shown)", "VH": "EVQLEESGTVLARPGASVKMSCKASGYTFTTYWMHWIKQRPGQGLEWIGAIYPGNGDTNYNQKFKDKAKLTAVKSTSSAYMELSSLTNEDSAVYFCTREGIPQKLRTLDVWGQGTSVTVSS", "VL": "DILMTQSPSSLSASLGERVSLTCRASQEISGYLSWLQEKPDGTIKRLIYAASTLDSGVPKRFSGSRSGSDYSLTISSLESEDFADYYCLQYLSYPWTFGGGTKLEIK"}, "B7": {"name": "AB-9 full-length IgG1 (antibody, V domains shown)", "VH": "EVQLEESGTVLARPGASVKMSCKASGYTFTSYWMHWIKQRPGQGLEWIGAIYPGNSDTNYNQKFKDKAKLTAVTSTSSAYMELSSLTNEDSAVYFCTREGIPQLLRTLDYWGQGTSVTVSS", "VL": "DILMTQSPSSLSASLGERVSLTCRASQEISGYLSWLQEKPDGTIKRLIYAASTLDSGVPKRFSGSRSGSDYSLTISSLESEDFADYYCLQYLSYPWTFGGGTKLEIK"}, "B8": {"name": "AB-4 full-length IgG1 (antibody, V domains shown)", "VH": "EVQLEESGTVLARPGASVKMSCKASGYTFTTYWMHWIKQRPGQGLEWIGAIYPGNGDTNYNQKFKDKAKLTAVKSTSSAYMELSSLTNEDSAVYFCTREGIPQLLRTFDYWGQGTSVTVSS", "VL": "DILMTQSPSSLSASLGERVSLTCRASQEIGGYLSWLQEKPDGTIKRLIYAASTLDSGVPKRFSGSRSGSDYSLTISSLESEDFADYYCLQYLSYPWTFGGGTKLEIK"}, "B9": {"name": "AB-5 full-length IgG1 (antibody, V domains shown)", "VH": "EVQLEESGTVLARPGASVKMSCKASGYTFTSYWMHWIKQRPGQGLEWIGAIYPGNGDTNYNQKFKDKAKLTAVKSTSSAYMELSSLTNEDSAVYFCTREGIPQLLNTLDVWGQGTSVTVSS", "VL": "DILMTQSPSSLSASLGERVSLTCRASQEISGYLSWLQEKPDGTIKRLIYAASTLDSGVPKRFSGSRSGSDYSLTISSLESEDFADYYCQQYLSYPWTFGGGTKLEIK"}}}
{"target": "soluble G614 HexaPro spike ectodomain (SARS-CoV-2, UniProt P0DTC2 14-1208)", "units": {"Kd": "nM"}}
{"binder": "B1", "Kd": 0.389}
{"binder": "B2", "Kd": 1.69}
{"binder": "B3", "Kd": 1.73}
{"binder": "B4", "Kd": 2.55}
{"binder": "B5", "Kd": 0.628}
{"binder": "B6", "Kd": 2.07}
{"binder": "B7", "Kd": 1.2}
{"binder": "B8", "Kd": 1.14}
{"binder": "B9", "Kd": 2.09}
